We go through three molecules from paper PMC8204306 (ACS Infectious Diseases, 2021).

The target of one data set is ChsB1 (Mycobacterium tuberculosis, UniProt O53547).
Substrate in data set [1]: C[C@]12CC[C@H]3[C@@H](CCC4=CC(=O)CC[C@@]43C)[C@@H]1CC[C@@H]2O
The experiment in a line: purified protein. The note with it: pH 8.5; 25.0 °C.

Substrate in data set [2]: NC(=O)C1=CN([C@@H]2O[C@H](COP(=O)(O)OP(=O)(O)OC[C@H]3O[C@@H](n4cnc5c(N)ncnc54)[C@H](O)[C@@H]3O)[C@@H](O)[C@H]2O)C=CC1
As to the kind of experiment: purified protein. The note with it: pH 8.5; 25.0 °C; varied: cofactor.

Substrate in data set [3]: C[C@H](C(=O)CC(=O)SCCNC(=O)CCNC(=O)[C@H](O)C(C)(C)COP(=O)(O)OP(=O)(O)OC[C@H]1O[C@@H](n2cnc3c(N)ncnc32)[C@H](O)[C@@H]1OP(=O)(O)O)[C@H]1CC[C@H]2[C@@H]3CCC4=CC(=O)CC[C@]4(C)[C@H]3CC[C@]12C
As to the kind of experiment: purified protein. The note with it: pH 8.5; 25.0 °C.

Substrate in data set [4]: CCCCC[C@@H](O)CC(=O)SCCNC(=O)CCNC(=O)[C@H](O)C(C)(C)COP(=O)(O)OP(=O)(O)OC[C@H]1O[C@@H](n2cnc3c(N)ncnc32)[C@H](O)[C@@H]1OP(=O)(O)O
As to the kind of experiment: purified protein. Particulars: pH 8.5; 25.0 °C.

Substrate in data set [5]: NC(=O)c1ccc[n+]([C@@H]2O[C@H](COP(=O)(O)OP(=O)(O)OC[C@H]3O[C@@H](n4cnc5c(N)ncnc54)[C@H](O)[C@@H]3O)[C@@H](O)[C@H]2O)c1
As to the kind of experiment: purified protein. Particulars: pH 8.5; 25.0 °C; varied: cofactor.

Substrate in data set [6]: C[C@@H]([C@H]1CC[C@H]2[C@@H]3CCC4=CC(=O)CC[C@]4(C)[C@H]3CC[C@]12C)[C@@H](O)CC(=O)SCCNC(=O)CCNC(=O)[C@H](O)C(C)(C)COP(=O)(O)OP(=O)(O)OC[C@H]1O[C@@H](n2cnc3c(N)ncnc32)[C@H](O)[C@@H]1OP(=O)(O)O
As to the kind of experiment: purified protein. The note with it: pH 8.5; 25.0 °C.

Substrate in data set [7]: CC(=CCC[C@@H](C)[C@H]1CC[C@H]2[C@@H]3CCC4=CC(=O)CC[C@]4(C)[C@H]3CC[C@]12C)C(=O)SCCNC(=O)CCNC(=O)[C@H](O)C(C)(C)COP(=O)(O)OP(=O)(O)OC[C@H]1O[C@@H](n2cnc3c(N)ncnc32)[C@H](O)[C@@H]1OP(=O)(O)O
The experiment in a line: purified protein. The note with it: pH 7.4; 25.0 °C.

Substrate in data set [8]: CCCCC/C=C/C(=O)SCCNC(=O)CCNC(=O)[C@H](O)C(C)(C)COP(=O)(O)OP(=O)(O)OC[C@H]1O[C@@H](n2cnc3c(N)ncnc32)[C@H](O)[C@@H]1OP(=O)(O)O
The experiment in a line: purified protein. The note with it: pH 7.4; 25.0 °C.

Substrate in data set [9]: C[C@H](/C=C/C(=O)SCCNC(=O)CCNC(=O)[C@H](O)C(C)(C)COP(=O)(O)OP(=O)(O)OC[C@H]1O[C@@H](n2cnc3c(N)ncnc32)[C@H](O)[C@@H]1OP(=O)(O)O)[C@H]1CC[C@H]2[C@@H]3CCC4=CC(=O)CC[C@]4(C)[C@H]3CC[C@]12C
The experiment in a line: purified protein. The note with it: pH 7.4; 25.0 °C.

For `NC(=O)c1ccc[n+]([C@@H]2O[C@H](COP(=O)(O)OP(=O)(O)OC[C@H]3O[C@@H](n4cnc5c(N)ncnc54)[C@H](O)[C@@H]3O)[C@@H](O)[C@H]2O)c1` [NAD^+], the “X-ray co-crystal structure, 2.21 Å” value at ChsB1 is “Co-crystallization of NAD^+ and ChsB1 yielded cubic crystals by sitting drop vapor diffusion”.

B1: ChsB1 (Mycobacterium tuberculosis H37Rv) (protein)
chain: MKLTESNRSPRTTNTTDLSGKVAVVTGAAAGLGRAEALGLARLGATVVVNDVASALDASDVVDEIGAAAADAGAKAVAVAGDISQRATADELLASAVGLGGLDIVVNNAGITRDRMLFNMSDEEWDAVIAVHLRGHFLLTRNAAAYWRDKAKDAEGGSVFGRLVNTSSEAGLVGPVGQANYAAAKAGITALTLSAARALGRYGVCANVICPRARTAMTADVFGAAPDVEAGQIDPLSPQHVVSLVQFLASPAAAEVNGQVFIVYGPQVTLVSPPHMERRFSADGTSWDPTELTATLRDYFAGRDPEQSFSATDLMRQ
For B1, the Km (commonly the concentration of substrate that gives half-maximal velocity) in “purified protein [1]” came out at 369 ± 75 µM; in the data set “purified protein [2]” it was 40 ± 6 µM; in “purified protein [3]”, 25 ± 5 µM; in “purified protein [4]”, 169 ± 21 µM; in “purified protein [5]” it was 70 ± 10 µM; in “purified protein [6]”, 5.3 ± 1 µM. For the same molecule, the kcat/Km (as a rule, the second-order rate constant that governs catalysis at low substrate concentration) in the data set “purified protein [1]” was determined as 810 M⁻¹ s⁻¹; in “purified protein [3]” it was 64000 M⁻¹ s⁻¹; in “purified protein [4]”, 15000 M⁻¹ s⁻¹; in the data set “purified protein [6]”, 1.7e+06 M⁻¹ s⁻¹.

B2: ChsH3 (Mycobacterium tuberculosis H37Rv) (protein)
chain: MPIDLDVALGAQLPPVEFSWTSTDVQLYQLGLGAGSDPMNPRELSYLADDTPQVLPTFGNVAATFHLTTPPTVQFPGIDIELSKVLHASERVEVPAPLPPSGSARAVTRFTDIWDKGKAAVICSETTATTPDGLLLWTQKRSIYARGEGGFGGKRGPSGSDVAPERAPDLQVAMPILPQQALLYRLCGDRNPLHSDPEFAAAAGFPRPILHGLCTYGMTCKAIVDALLDSDATAVAGYGARFAGVAYPGETLTVNVWKDGRRLVASVVAPTRDNAVVLSGVELVPA
As to B2, the Km is 12 ± 6 µM in the data set “purified protein [7]”, 112 ± 12 µM in the data set “purified protein [8]” and 55 ± 5 µM in the data set “purified protein [9]”. Moreover, the kcat/Km was 120000 M⁻¹ s⁻¹ in “purified protein [7]”, 1.5e+06 M⁻¹ s⁻¹ in “purified protein [8]” and 2e+06 M⁻¹ s⁻¹ in the data set “purified protein [9]”.
